{"source": "patent US20240343798A1", "about": "(GV20 THERAPEUTICS, published 2024)", "binders": {"B1": {"name": "KLRC1/KLRD1 heterodimeric receptor (receptor)", "chain 1": "not shown", "chain 2": "MAVFKTTLWRLISGTLGIICLSLMSTLGILLKNSFTKLSIEPAFTPGPNIELQKDSDCCSCQEKWVGYRCNCYFISSEQKTWNESRHLCASQKSSLLQLQNTDELDFMSSSQQFYWIGLSYSEEHTAWLWENGSALSQYLFPSFETFNTKNCIAYNPNGNALDESCEDKNRYICKQQLI", "notes": "whole, on cells; CT26 cells co-transduced with both lentiviral constructs; also called KLRC1&D1 heterodimer; KLRC1/D1"}, "B2": {"name": "KIR3DL2 D3 construct (receptor, human, UniProt P43630 222-316, looked up)", "chain": "EKPSLSAQPGPTVQAGENVTLSCSSWSSYDIYHLSREGEAHERRLRAVPKVNRTFQADFPLGPATHGGTYRCFGSFRALPCVWSNSSDPLLVSVT", "notes": "domain: D3; On CT26 cells, thy1.1 tag vector; also called D1/D3 construct"}, "B3": {"name": "Antibody C30 (B34) (antibody, human IgG1, V domains shown)", "VH": "EVQLLESGGGLVQPGGSLRLSCAASGFTFSSYAMSWVRQAPGKGLEWVSGITGSGGSTYYADSVKGRFTISRDNSKNTLYLQMNSLRAEDTAVYYCARGRQVDKWGQGTLVTVSS", "VL": "DIMLTQSPSSLSASVGDRVTITCRASQSIHNYLNWIQQTPGKAPKLLVFAASTLQRGVPPRYSGRGSGTEFTLTISSLQPEDFATYYCQQSYTTPLTFGGGTKVEIRR", "notes": "Fully human, expressed in CHO cells; also called mAb-B34 (C30)"}, "B4": {"name": "KIR3DL1 D3 construct (receptor, human, UniProt P43629 222-316, looked up)", "chain": "EKPSLSAQPGPKVQAGESVTLSCSSRSSYDMYHLSREGGAHERRLPAVRKVNRTFQADFPLGPATHGGTYRCFGSFRHSPYEWSDPSDPLLVSVT", "notes": "as for B2"}, "B5": {"name": "D1 domain of IGSF8 protein (ligand, UniProt Q969P0 28-149, looked up)", "chain": "REVLVPEGPLYRVAGTAVSISCNVTGYEGPAQQNFEWFLYRPEAPDTALGIVSTKDTQFSYAVFKSRVVAGEVQVQRLQGDAVVLKIARLQAQDAGIYECHTPSTDTRYLGSYSGKVELRVL", "notes": "domain: D1; also called D1 (Ig-V set) ECD of IGSF8"}}, "key": {"[1]": {"target": "T1, human IGSF8 expressed on the cell surface (human, UniProt Q969P0 28-613)", "T1 construct": "whole, on cells; Forced expression on CT26, MC38 or K562 cells; endogenous on A431 cells; also called full-length IGSF8", "T1 sequence (looked up)": "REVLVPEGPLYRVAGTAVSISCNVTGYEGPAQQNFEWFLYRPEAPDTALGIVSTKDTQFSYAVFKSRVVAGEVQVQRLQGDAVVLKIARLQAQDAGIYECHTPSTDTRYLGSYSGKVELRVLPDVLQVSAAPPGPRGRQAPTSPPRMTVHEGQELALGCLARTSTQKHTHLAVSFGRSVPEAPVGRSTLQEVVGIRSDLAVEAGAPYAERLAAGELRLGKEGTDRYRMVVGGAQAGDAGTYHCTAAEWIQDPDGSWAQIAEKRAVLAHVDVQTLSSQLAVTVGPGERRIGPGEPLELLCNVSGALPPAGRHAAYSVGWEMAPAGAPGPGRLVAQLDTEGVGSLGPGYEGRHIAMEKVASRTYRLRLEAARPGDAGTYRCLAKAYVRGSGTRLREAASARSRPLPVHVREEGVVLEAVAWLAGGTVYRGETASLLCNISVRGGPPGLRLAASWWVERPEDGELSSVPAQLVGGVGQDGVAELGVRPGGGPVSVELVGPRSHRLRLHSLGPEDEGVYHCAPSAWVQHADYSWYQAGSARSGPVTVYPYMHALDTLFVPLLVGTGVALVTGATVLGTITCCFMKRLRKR", "assay": "cell-cell conjugate assay, labelled MC38 and CT26 cells mixed 1:1, flow cytometry", "from_the_text": "A competition assay (FIG. 23A) was then designed to test whether these seven mAbs block IGSF8 binding to the KIR3DL1/2 or the KLRC1&D1 heterodimer receptors. MC38 cells (a cell line derived from C57BL6 murine colon adenocarcinoma cells from NIH) with forced expression of IGSF8 protein on cell surface by lentiviral delivery of a human IGSF8-expression construct were labeled with CFSE (Carboxyfluorescein succinimidyi ester, Thermo). CT26 cells with forced expression of either KIR3DL1/2 or KLRC1&D1 were labeled with CellTrace Far Red (Thermo). The MC38 cells were then mixed at a 1:1 ratio with the CT26 cells for about an hour at room temperature. The formation of MC38 and CT26 cell/cell conjugates was assessed by flow cytometry."}, "[2]": {"target": "T2, recombinant human IGSF8 extracellular domain tagged by a human Fc region (IGSF8-hFc) (human, UniProt Q969P0 28-579)", "T2 construct": "extracellular domain; also called IGSF8-Fc; IGSF8 hFc fusion protein; not shown: human Fc region", "T2 sequence (looked up)": "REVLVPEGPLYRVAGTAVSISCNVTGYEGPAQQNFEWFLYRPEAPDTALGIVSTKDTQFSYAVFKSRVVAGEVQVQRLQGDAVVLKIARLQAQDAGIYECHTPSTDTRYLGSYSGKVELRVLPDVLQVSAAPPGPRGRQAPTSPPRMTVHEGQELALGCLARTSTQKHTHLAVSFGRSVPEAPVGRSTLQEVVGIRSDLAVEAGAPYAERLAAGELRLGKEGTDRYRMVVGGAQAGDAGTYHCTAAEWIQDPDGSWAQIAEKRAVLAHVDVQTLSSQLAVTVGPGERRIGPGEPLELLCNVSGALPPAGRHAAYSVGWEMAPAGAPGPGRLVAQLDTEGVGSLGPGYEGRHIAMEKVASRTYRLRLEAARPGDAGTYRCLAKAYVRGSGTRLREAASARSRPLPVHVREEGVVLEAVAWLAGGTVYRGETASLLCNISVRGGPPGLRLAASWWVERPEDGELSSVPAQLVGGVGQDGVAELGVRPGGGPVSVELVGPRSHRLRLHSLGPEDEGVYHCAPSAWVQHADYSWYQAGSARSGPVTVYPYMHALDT", "assay": "flow cytometry, IGSF8-hFc on transduced CT26 cells, MFI normalized to Thy1.1 expression", "experimental": "(§1) KLRC1 also contains a ITIM motif in its intracellular domain, and was known to be a inhibitory receptor of NK or CD8⁺ T cells as part of a heterodimer with KLRD1 on the cell surface. […] Specifically, 100,000 CT26 cells overexpressing the antigens (KIRs or KLRs) were washed with PBS buffer containing 2% FBS, and incubated with 100 μL IGSF8 recombinant proteins or antibodies (5 μg/mL) for 30 minutes on ice. Cells were then washed twice with wash buffer, and incubated with 100 μL of 1:100 anti-human Fc-PE antibody for 15 minutes on ice. Cells were washed twice with wash buffer and analyzed on a FACS analyzer (CytoFlex, Beckman). In these experiments, the mean fluorescence intensity (MFI) of IGSF8 binding to different CT26 cells were normalized by the expression of different KLRs on CT26 cells using an anti-thy1.1 mAb via flow cytometry."}, "[3]": {"target": "T2, recombinant human IGSF8 extracellular …", "assay": "flow cytometry, IGSF8-hFc on CT26 cells with single-domain KIR3DL1/2 constructs, MFI normalized to Thy1.1"}, "[4]": {"target": "T3, IGSF8 protein without D1 domain (UniProt Q969P0 150-579, limits assumed)", "T3 construct": "domain: D2-D4 (without D1); also called D24; D2-4", "T3 sequence (looked up)": "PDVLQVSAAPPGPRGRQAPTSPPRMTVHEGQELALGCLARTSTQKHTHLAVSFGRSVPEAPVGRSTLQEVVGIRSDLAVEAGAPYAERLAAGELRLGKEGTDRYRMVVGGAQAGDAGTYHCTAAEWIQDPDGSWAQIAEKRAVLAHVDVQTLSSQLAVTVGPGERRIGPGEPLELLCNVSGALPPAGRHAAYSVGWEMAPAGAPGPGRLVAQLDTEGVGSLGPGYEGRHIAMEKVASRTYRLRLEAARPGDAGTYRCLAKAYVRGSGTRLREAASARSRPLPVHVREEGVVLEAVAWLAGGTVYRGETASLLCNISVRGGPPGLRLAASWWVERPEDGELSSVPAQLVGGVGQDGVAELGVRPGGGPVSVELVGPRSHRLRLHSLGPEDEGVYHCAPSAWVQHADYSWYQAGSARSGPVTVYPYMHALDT", "assay": "flow cytometry, CT26 cells expressing IGSF8-D24 (IGSF8 without D1)"}, "KIR3DL2": {"target": "T4, KIR3DL2 (human, UniProt P43630 22-455)", "T4 construct": "whole, on cells; On mouse CT26 cells, lentiviral vector with a thy1.1 tag; also called KIR3DL1/2", "T4 sequence (P43630 22-455)": "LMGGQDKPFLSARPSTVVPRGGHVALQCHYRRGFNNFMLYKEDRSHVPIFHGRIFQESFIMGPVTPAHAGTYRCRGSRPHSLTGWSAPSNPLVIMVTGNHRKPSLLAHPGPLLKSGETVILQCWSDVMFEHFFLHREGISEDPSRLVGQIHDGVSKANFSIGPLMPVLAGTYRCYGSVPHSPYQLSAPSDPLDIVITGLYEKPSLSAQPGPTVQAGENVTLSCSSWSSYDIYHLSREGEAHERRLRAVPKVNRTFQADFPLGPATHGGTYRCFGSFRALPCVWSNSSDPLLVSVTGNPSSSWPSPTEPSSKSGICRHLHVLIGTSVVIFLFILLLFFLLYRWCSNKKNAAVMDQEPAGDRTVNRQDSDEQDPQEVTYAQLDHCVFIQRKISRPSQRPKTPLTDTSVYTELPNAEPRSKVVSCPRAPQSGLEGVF", "assay": "flow cytometry, hFc fusion proteins on transduced CT26 cells, MFI normalized", "experimental": "(§2) For this experiment, different human KIR receptors (KIR2DL1, KIR2DL2, KIR2DL3, KIR2DL4, KIR2DL5A, KIR2DL5B, KIR3DL1, KIR3DL2, KIR3DL3) were first cloned into a proprietary lentiviral vector containing a thy1.1 tag (FIG. 17A). Then mouse CT26 cells, were transducted by these lentiviral constructs, and IGSF8 binding was tested with biotin-labelled recombinant IGSF8 hFc fusion protein. The mean fluorescence intensity (MFI) of IGSF8 binding to different CT26 cells were normalized by the expression of different KIRs on CT26 cells using an anti-thy1.1 mAb (Biolegend) via flow cytometry.\nas §1"}, "[5]": {"target": "B1", "assay": "flow cytometry, hFc fusion proteins on transduced CT26 cells, MFI normalized", "experimental": "as §2, §1"}, "KIR3DL1": {"target": "T5, KIR3DL1 (human, UniProt P43629 22-444)", "T5 construct": "whole, on cells; On mouse CT26 cells, lentiviral vector with a thy1.1 tag; also called KIR3DL1/2", "T5 sequence (P43629 22-444)": "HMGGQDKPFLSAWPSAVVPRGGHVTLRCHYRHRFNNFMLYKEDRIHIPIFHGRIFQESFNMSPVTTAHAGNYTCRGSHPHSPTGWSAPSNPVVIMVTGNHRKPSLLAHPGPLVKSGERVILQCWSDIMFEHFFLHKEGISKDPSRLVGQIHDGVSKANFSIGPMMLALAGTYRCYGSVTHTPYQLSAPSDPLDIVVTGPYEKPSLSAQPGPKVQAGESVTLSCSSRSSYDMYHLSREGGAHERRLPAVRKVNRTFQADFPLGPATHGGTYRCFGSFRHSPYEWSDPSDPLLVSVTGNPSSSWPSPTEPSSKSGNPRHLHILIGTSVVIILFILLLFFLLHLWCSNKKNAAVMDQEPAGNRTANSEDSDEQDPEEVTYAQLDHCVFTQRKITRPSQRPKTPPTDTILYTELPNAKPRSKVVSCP", "assay": "flow cytometry, hFc fusion proteins on transduced CT26 cells, MFI normalized", "experimental": "as §2, §1"}}, "data": [{"binder": "B1", "values": [{"measurement": "binding result", "setting": "[1]", "value": "binds"}, {"measurement": "binding result", "setting": "[2]", "value": "binds"}]}, {"binder": "B2", "values": [{"measurement": "binding result", "setting": "[3]", "value": "no binding"}]}, {"binder": "B3", "values": [{"measurement": "binding result", "setting": "[4]", "value": "no binding"}]}, {"binder": "B4", "values": [{"measurement": "binding result", "setting": "[3]", "value": "no binding"}]}, {"binder": "B5", "values": [{"measurement": "binding result", "setting": "KIR3DL2", "value": "binds"}, {"measurement": "binding result", "setting": "[5]", "value": "binds"}, {"measurement": "binding result", "setting": "KIR3DL1", "value": "binds"}]}]}
